Experimental data from publication PMC11641012.

Key:
Test in all cases: EMSA
Conditions in all cases: EMSA: 10 mM Tris-HCl, 10 mM NaCl, 40 mM KCl, 1 mM MgCl2, 4 mM EDTA, 1 mM DTT, 0.5 mg/ml BSA, 5% glycerol, 2 pmol DNA in 15 ul, room temperature 15 min (pH not …)
[1] = tested on: IntI1 (IntI1Y312F), MBP fusion
IntI1A = tested on: IntI1A
IntI1deltaC = tested on: IntI1deltaC

Sequence | K half [1] | K half (IntI1A) | K half (IntI1deltaC) | binding signal [1]
CATTGCGCATTGCGTAGATCTTTTGTTATAACGCCCGCCTAAGGGGCTGACAACGCACTACCACTAAACTCAAACACAACAACAGCAACCACCGCGGCTCAATGGGACTGGAAACGCCACGCGTTGACAGTCCCTCTTGAGGCGTTTGTTATAACTTTCCATGGCTATATTTCAGCATCATCACATCATCATCATCATCATCACAGGGTAGATCATCATCATCAACACGGGACGACAGCAAATGGCACCCTTCTATAAGCTTTTTGTTATAACGCCCGCCTAAGGGGCTGACAACGCACTACCACTAAACTCAAACACAACAACAGCAACCACCGCGGCTCAATGGGACTGGAAACGCCACGCGTTGACAGTCCCTCTTGAGGCGTTTGTTATAACTTTCTCGAGGGTATAGCATTCTAG / CCCTGTGATGATGATGATGATGATGTGATGATGCTGAAATATAGCCATGGACGCAGATCTACGCAATGCGCAATG / CTAGAATGCTATACCCTCGAGCGCAAGCTTATAGAAGGGTGCCATTTGCTGTCGTCCCGTGTTGATGATGATGATC [double-attCVCR2/1 + staples] | 353 nM |  |  | 
CATTGCGCATTGCGTAGATCTTTTGTTATAACTTTCGCCTAAGGGGCTGACAACGCACTACCACTAAACTCAAACACAACAACAGCAACCACCGCGGCTCAATGGGACTGGAAACGCCACGCGTTGACAGTCCCTCTTGAGGCGGCCGTTATAACTTTCCATGGCTATATTTCAGCATCATCACATCATCATCATCATCATCACAGGGTAGATCATCATCATCAACACGGGACGACAGCAAATGGCACCCTTCTATAAGCTTTTTGTTATAACTTTCGCCTAAGGGGCTGACAACGCACTACCACTAAACTCAAACACAACAACAGCAACCACCGCGGCTCAATGGGACTGGAAACGCCACGCGTTGACAGTCCCTCTTGAGGCGGCCGTTATAACTTTCTCGAGGGTATAGCATTCTAG / CCCTGTGATGATGATGATGATGATGTGATGATGCTGAAATATAGCCATGGACGCAGATCTACGCAATGCGCAATG / CTAGAATGCTATACCCTCGAGCGCAAGCTTATAGAAGGGTGCCATTTGCTGTCGTCCCGTGTTGATGATGATGATC [double-attCVCRinv + staples] | 135 nM |  |  | 
CATTGCGCATTGCGTAGATCTTTTGAGTAACCGTTTTGAGTCGAACCCAACGATCCGTTGGTGTTCGAGCTCATCTGTGTTACTCTTTCCATGGCTATATTTCAGCATCATCACATCATCATCATCATCATCACAGGGTAGATCATCATCATCAACACGGGACGACAGCAAATGGCACCCTTCTATAAGCTTTTTGAGTAACCGTTTTGAGTCGAACCCAACGATCCGTTGGTGTTCGAGCTCATCTGTGTTACTCTTTCTCGAGGGTATAGCATTCTAG / CCCTGTGATGATGATGATGATGATGTGATGATGCTGAAATATAGCCATGGACGCAGATCTACGCAATGCGCAATG / CTAGAATGCTATACCCTCGAGCGCAAGCTTATAGAAGGGTGCCATTTGCTGTCGTCCCGTGTTGATGATGATGATC [double-attCL2 + staples] | 357 nM |  |  | 
CATTGCGCATTGCGTAGATCTTTTATGTCTAACGCTTGAATTAAGCCGCGCCGCGAAGCGGCGTCGGCTTGAATGAATTGTTAGACATTTTCCATGGCTATATTTCAGCATCATCACATCATCATCATCATCATCACAGGGTAGATCATCATCATCAACACGGGACGACAGCAAATGGCACCCTTCTATAAGCTTTTTATGTCTAACGCTTGAATTAAGCCGCGCCGCGAAGCGGCGTCGGCTTGAATGAATTGTTAGACATTTTCTCGAGGGTATAGCATTCTAG / CCCTGTGATGATGATGATGATGATGTGATGATGCTGAAATATAGCCATGGACGCAGATCTACGCAATGCGCAATG / CTAGAATGCTATACCCTCGAGCGCAAGCTTATAGAAGGGTGCCATTTGCTGTCGTCCCGTGTTGATGATGATGATC [double-attCaadA7bs + staples] | 153 nM | 100 nM | 180 nM | 
CATTGCGCATTGCGTAGATCTTTTATGTCTAACAATTCATTCAAGCCGACGCCGCTTCGCGGCGCGGCTTAATTCAAGCGTTAGACATTTTCCATGGCTATATTTCAGCATCATCACATCATCATCATCATCATCACAGGGTAGATCATCATCATCAACACGGGACGACAGCAAATGGCACCCTTCTATAAGCTTTTTATGTCTAACAATTCATTCAAGCCGACGCCGCTTCGCGGCGCGGCTTAATTCAAGCGTTAGACATTTTCTCGAGGGTATAGCATTCTAG / CCCTGTGATGATGATGATGATGATGTGATGATGCTGAAATATAGCCATGGACGCAGATCTACGCAATGCGCAATG / CTAGAATGCTATACCCTCGAGCGCAAGCTTATAGAAGGGTGCCATTTGCTGTCGTCCCGTGTTGATGATGATGATC [double-attCaadA7ts + staples] |  |  |  | 7 % bound
